According to the supplement of paper PMC10201428:
± gives the standard deviation of the averaged measurements.

Experiments:
[1] = tested on: VchCAST RNA-guided transposition machinery (E. coli BL21(DE3) host, lacZ target); assay: relative integration efficiency (T-RL orientation) vs wild-type transposon end (log2 (normalized fold change)); transposon end mutated: left end; higher = more efficient transposition
Method in brief: (§1)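 Barcode abundances in input plasmids and in genomic integration junctions were obtained by PCR amplification and Illumina sequencing. These came from E. coli BL21(DE3) co-transformed with a T7-driven effector plasmid and a pUC57 donor carrying 1549 left-end or 1849 right-end transposon variants, then plated with 0.1 mM IPTG at 37°C for 18 h. Relative integration efficiency is the output/input fold change, normalised to reference barcodes and log-transformed.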

[2] = tested on: VchCAST RNA-guided transposition machinery (E. coli BL21(DE3) host, lacZ target); assay: relative integration efficiency (T-LR orientation) vs wild-type transposon end (log2 (normalized fold change)); transposon end mutated: left end; higher = more efficient transposition
Method in brief: as §1

Sequence	relative integration efficiency (log2) [1]	relative integration efficiency (log2) [2]
AATGTTGTTGATGCAACCATAAAGTGATATTTAATAATTATTTACAACCATATATTGATATCTCACAAAACAACCATAAGTTGATATTTTTGTGAATCGAGTATTTCAGCAAAACTACTGCAGTAAGAAAGTTACTTCGTGGTATGGGAGGA	-5.81 ± 1.1	-1.76 ± 1
AATGTTGTTGATGCAACCATAAAGTGATATTTAATAATTATTTACAACCATATATTGATATCTCTAATCAGCAACTTAACCACAAAAACAAAACAACCATAAGTTGATATTTTTGTGAATCGAGTATTTCAGCAAAACTACTGCAGTAAGAA	-4.75 ± 1.3	-2.24 ± 2.1
AATGTTGTTGATGCAACCATAAAGTGATATTTAATAATTATTTATAACAACCATATATTGATATCTCTCAGCAACTTAACCACAAAAACAAAACAACCATAAGTTGATATTTTTGTGAATCGAGTATTTCAGCAAAACTACTGCAGTAAGAA	-4.46 ± 0.052	-2.66 ± 1.4
AATGTTGTTGATGCAACCATAAAGTGATATTTAATAATTATTTATAAGACTACCAGGCCAACACCCCACCAACGCGCGGTCGCGAGACACCCCACCAACGCCTGGTCGCGGGGGTGTCCGATCTGATTTCAGCAAAACTACTGCAGTAAGAA	-6.62 ± 1.2	-6.04 ± 3.5
AATGTTGTTGATGCAACCATAAAGTGATATTTAATAATTATTTATAATACTACCAGGCCAACACCCCACCAACGCGCGGTCGCGAGACACCCCACCAACGCCTGGTCGCGGGGGTGTCCGATCTGATTTCAGCAAAACTACTGCAGTAAGAA	-6.5 ± 1.2	-3.51 ± 1.3
AATGTTGTTGATGCAACCATAAAGTGATATTTAATAATTATTTATAATCAACCATATATTGATATCTCACAAAACAACCATAAGTTGATATTTTTGTGAATCGAGTATTTCAGCAAAACTACTGCAGTAAGAAAGTTACTTCGTGGTATGGG	-6.16 ± 1.6	-4.56 ± 2.6
AATGTTGTTGATGCAACCATAAAGTGATATTTAATAATTATTTATAATCAACCATATATTGATATCTCCAGCAACTTAACCACAAAAACAAAACAACCATAAGTTGATATTTTTGTGAATCGAGTATTTCAGCAAAACTACTGCAGTAAGAA	-3 ± 0.78	-2.65 ± 0.85
AATGTTGTTGATGCAACCATAAAGTGATATTTAATAATTATTTATAATCACAACCATATATTGATATCTCACAAAACAACCATAAGTTGATATTTTTGTGAATCGAGTATTTCAGCAAAACTACTGCAGTAAGAAAGTTACTTCGTGGTATG	-8.21 ± 0.54	-5.27 ± 1
AATGTTGTTGATGCAACCATAAAGTGATATTTAATAATTATTTATAATCAGCAACTCAACCATATATTGATATCTCACAAAACAACCATAAGTTGATATTTTTGTGAATCGAGTATTTCAGCAAAACTACTGCAGTAAGAAAGTTACTTCGT	-3.68 ± 1.1	-3.27 ± 0.88
AATGTTGTTGATGCAACCATAAAGTGATATTTAATAATTATTTATAATCAGCAACTGCCAACACCCCACCAACGCGCGGTCGCGAGACACCCCACCAACGCCTGGTCGCGGGGGTGTCCGATCTGATTTCAGCAAAACTACTGCAGTAAGAA	-6.35 ± 0.99	-3.03 ± 0.58
AATGTTGTTGATGCAACCATAAAGTGATATTTAATAATTATTTATAATCAGCAACTTAAAACACCCCACCAACGCGCGGTCGCGAGACACCCCACCAACGCCTGGTCGCGGGGGTGTCCGATCTGATTTCAGCAAAACTACTGCAGTAAGAA	-5.87 ± 1.1	-3.63 ± 1.1
AATGTTGTTGATGCAACCATAAAGTGATATTTAATAATTATTTATAATCAGCAACTTAACAACCATATATTGATATCTCACAAAACAACCATAAGTTGATATTTTTGTGAATCGAGTATTTCAGCAAAACTACTGCAGTAAGAAAGTTACTT	-3.63 ± 1.3	-4.07 ± 1.9
AATGTTGTTGATGCAACCATAAAGTGATATTTAATAATTATTTATAATCAGCAACTTAACAACCATATATTGATATCTCCCACAAAAACAAAACAACCATAAGTTGATATTTTTGTGAATCGAGTATTTCAGCAAAACTACTGCAGTAAGAA	-1.81 ± 0.81	-3.54 ± 1.9
AATGTTGTTGATGCAACCATAAAGTGATATTTAATAATTATTTATAATCAGCAACTTAACACACCCCACCAACGCGCGGTCGCGAGACACCCCACCAACGCCTGGTCGCGGGGGTGTCCGATCTGATTTCAGCAAAACTACTGCAGTAAGAA	-5.82 ± 1.5	-3.16 ± 0.77
AATGTTGTTGATGCAACCATAAAGTGATATTTAATAATTATTTATAATCAGCAACTTAACCAACCCCACCAACGCGCGGTCGCGAGACACCCCACCAACGCCTGGTCGCGGGGGTGTCCGATCTGATTTCAGCAAAACTACTGCAGTAAGAA	-5.95 ± 1.6	-4.2 ± 0.92
AATGTTGTTGATGCAACCATAAAGTGATATTTAATAATTATTTATAATCAGCAACTTAACCACAAAAACCAACGCGCGGTCGCGAGAACAAAAACCAACGCCCTGTCGCGGGCTGTGAATCGAGTATTTCAGCAAAACTACTGCAGTAAGAA	-6.97 ± 1.6	-4.56 ± 2.1

Sequence	relative integration efficiency (log2) [1]	relative integration efficiency (log2) [2]
AATGTTGTTGATGCAACCATAAAGTGATATTTAATAATTATTTATAATCAGCAACTTAACCACAAAAACCAACGCGCGGTCGCGAGAACAAAACAACCATAAGTTGATATTTTTGTGAATCGAGTATTTCAGCAAAACTACTGCAGTAAGAA	-3.6 ± 1.3	-2.16 ± 0.37
AATGTTGTTGATGCAACCATAAAGTGATATTTAATAATTATTTATAATCAGCAACTTAACCACAAAAACCAACGCGCGGTCGCGAGACACCCCACCAACGCCTGGTCGCGGGGGTGTCCGATCTGATTTCAGCAAAACTACTGCAGTAAGAA	-7.55 ± 2	-4.28 ± 1
AATGTTGTTGATGCAACCATAAAGTGATATTTAATAATTATTTATAATCAGCAACTTAACCACAAAACAAAACGCGCGGTCGCGAGACACCCCACCAACGCCTGGTCGCGGGGGTGTCCGATCTGATTTCAGCAAAACTACTGCAGTAAGAA	-6.07 ± 0.85	-3.29 ± 0.78
AATGTTGTTGATGCAACCATAAAGTGATATTTAATAATTATTTATAATCAGCAACTTAACCACAAAACAACCAGCGCGGTCGCGAGACACCCCACCAACGCCTGGTCGCGGGGGTGTCCGATCTGATTTCAGCAAAACTACTGCAGTAAGAA	-7.15 ± 1.6	-5.07 ± 2.1
AATGTTGTTGATGCAACCATAAAGTGATATTTAATAATTATTTATAATCAGCAACTTAACCACAAAACAACCATAAAATGATAATTAACAAAAGTTGGTATTCAACTATAAAATGTGAATCGAGTATTTCAGCAAAACTACTGCAGTAAGAA	-2.67 ± 1.1	-1.31 ± 1.8
AATGTTGTTGATGCAACCATAAAGTGATATTTAATAATTATTTATAATCAGCAACTTAACCACAAAACAACCATAAAGTGATATTTAACAAAAGTTGGTATTCAACTATAAAATGTGAATCGAGTATTTCAGCAAAACTACTGCAGTAAGAA	-2.53 ± 1.4	-0.811 ± 0.85
AATGTTGTTGATGCAACCATAAAGTGATATTTAATAATTATTTATAATCAGCAACTTAACCACAAAACAACCATAAGTTGATATTTTACAAAAGTTGGTATTCAACTATAAAATGTGAATCGAGTATTTCAGCAAAACTACTGCAGTAAGAA	-2.49 ± 1.1	-0.485 ± 0.68
AATGTTGTTGATGCAACCATAAAGTGATATTTAATAATTATTTATAATCAGCAACTTAACCACAAAACAACCATAGCGGTCGCGAGACACCCCACCAACGCCTGGTCGCGGGGGTGTCCGATCTGATTTCAGCAAAACTACTGCAGTAAGAA	-6.21 ± 1.6	-4.33 ± 1.8
AATGTTGTTGATGCAACCATAAAGTGATATTTAATAATTATTTATAATCAGCAACTTAACCACAAAACAACCATATAGGTCGCGAGACACCCCACCAACGCCTGGTCGCGGGGGTGTCCGATCTGATTTCAGCAAAACTACTGCAGTAAGAA	-5.2 ± 1.6	-3.44 ± 0.57
AATGTTGTTGATGCAACCATAAAGTGATATTTAATAATTATTTATAATCAGCAACTTAACCACAAAACAACCATATATTGAGCGAGACACCCCACCAACGCCTGGTCGCGGGGGTGTCCGATCTGATTTCAGCAAAACTACTGCAGTAAGAA	-4.19 ± 1.3	-2.37 ± 1.7
AATGTTGTTGATGCAACCATAAAGTGATATTTAATAATTATTTATAATCAGCAACTTAACCACAAAACAACCATATATTGATACAAAACAACCATAAGTTGATATTTTTGTGAATCGAGTATTTCAGCAAAACTACTGCAGTAAGAAAGTTA	-4.34 ± 0.99	-2.08 ± 1.7
AATGTTGTTGATGCAACCATAAAGTGATATTTAATAATTATTTATAATCAGCAACTTAACCACAAAACAACCATATATTGATAGAGACACCCCACCAACGCCTGGTCGCGGGGGTGTCCGATCTGATTTCAGCAAAACTACTGCAGTAAGAA	-3.06 ± 1.2	-1.28 ± 2
AATGTTGTTGATGCAACCATAAAGTGATATTTAATAATTATTTATAATCAGCAACTTAACCACAAAACAACCATATATTGATATACAAAACAACCATAAGTTGATATTTTTGTGAATCGAGTATTTCAGCAAAACTACTGCAGTAAGAAAGT	-4.08 ± 1.3	-0.952 ± 0.93
AATGTTGTTGATGCAACCATAAAGTGATATTTAATAATTATTTATAATCAGCAACTTAACCACAAAACAACCATATATTGATATAGACACCCCACCAACGCCTGGTCGCGGGGGTGTCCGATCTGATTTCAGCAAAACTACTGCAGTAAGAA	-2.48 ± 1.1	-1.07 ± 1.7
AATGTTGTTGATGCAACCATAAAGTGATATTTAATAATTATTTATAATCAGCAACTTAACCACAAAACAACCATATATTGATATCACAAAACAACCATAAGTTGATATTTTTGTGAATCGAGTATTTCAGCAAAACTACTGCAGTAAGAAAG	-2.64 ± 0.93	-0.718 ± 0.95
